Source: patent publication US9114104B2, “Proteinase K inhibitors, methods and compositions therefor” (Life Technologies Corporation, priority 2008, dated 2015)
The star is where a group is joined. MeOSuc = COC(=O)CCC(=O)*; CH2Cl = ClC*

Key:
proteinase K [1] = biological target: T1, proteinase K (Parengyodontium album, UniProt P06873); test: Indirect linked assay: proteinase K inhibition read out by reverse transcriptase real time PCR of Xeno RNA template (Cells-to-CT kit); format: biochemical
Excerpt: The present example provides for inhibition of proteinase K in the context of preparing samples for nucleic acid detection. Said preparation of samples is described by pending U.S. patent application Ser. No. 12/122,274 filed May 16, 2008 entitled “Sample Preparation for In Situ Nucleic Acid Analysis, Methods and Compositions Therefor,” hereby incorporated by reference in its entirety. Embodiments of said patent application provide a process for preparing a sample containing RNA for in situ analysis of RNA or a surrogate thereof. In some embodiments, the process comprises contacting the sample containing RNA with a lysis mixture comprising a polypeptide having protease activity under conditions and for a time to produce a lysate, and admixing at least a portion of the lysate with a stop mixture that comprises an inhibitor of the polypeptide having protease activity at substantially the same temperature as the contacting step to form a stopped mixture. The resultant stopped mixture is preferably compatible with in situ reverse transcriptase and DNA polymerase reactions.
Methoxysuccinyl tetrapeptide chloromethylketone compounds synthesized as set forth in Example 1 herein were analyzed for inhibitory activity of proteinase K in such stopped mixtures as described below. Functional validation for the nucleic acid detection system using inhibitors of embodiments herein was carried out by measuring mRNA levels in biological samples using the TaqMan® Gene Expression Cells-to-CT™ Kit and the TaqMan® Cells-to-CT™ Control Kit (Applied Biosystems, Foster City, Calif.). MicroAmp® optical 96-well reaction plates were purchased from Applied Biosystems. Disposable reagent reservoirs were purchased from VistaLab Technologies, Inc (Mt. Kisco, N.Y.). Reverse transcription (RT) reactions were performed at 37° C. for 60 min, 95° C. for 5 min, and cooled to 4° C. by using GeneAmp® PCR systems 9700 (Applied Biosystems). Real time PCR was performed by using 7500 Fast Real-Time PCR System. (Applied Biosystems).
The present indirect linked assay measures the amount of inhibition of proteinase K activity by assaying reverse transcriptase real time PCR amplification of a template, which amplification is dependent upon reverse transcriptase activity.
Stop solutions (100 μl) contained the following reagents (10× concentration):
Test inhibitor, 11 mM (final concentration when diluted into stopped mixture is 1 mM). Test inhibitor was also used at concentrations such that, when diluted with a lysis mixture to form a stopped mixture as described below, the final concentration of inhibitor in the stopped mixture was 0.75 mM, 0.5 mM, 0.25 mM, 0.10 mM, 0.05 mM and 0 mM (control).
Proteinase K lysis solution (50 μL (no added DNase)) from the TaqMan® gene expression Cells-to-CT™ kit (Applied Biosystems) was aliquoted into 18 tubes. To the test samples (these are a working equivalent to lysis mixtures in the Cells-to-CT™ workflow), stop solution (5 μL) was added; the tubes were mixed and held for 2 min at room temperature. For the control reactions, 50 μl of proteinase K buffer was mixed with 5 μl of stop mix without inhibitor and the resulting reaction mixture was heated at 95° C. for 10 min to thermally inactivate the proteinase K reaction. Next, reverse transcription reagents were prepared, i.e. 15 μL 2×RT buffer, and 1.5 μL of 20×RT enzyme mix, were aliquoted and mixed in the wells of a 96 well plate. To this RT solution, 13.5 μL of each proteinase K containing stopped mixture was added and the solution was mixed well. The resulting mixtures were incubated at room temperature for 1 hr for residual proteinase K activity to degrade the RT enzyme. After 1 hr incubation at room temperature, 1 μL of Xeno™ RNA Control template (Applied Biosystems P/N 4386995 diluted to 25,000 copies/μL in 10 ng/μL poly A) was added to all wells except for the no template control wells. […]

proteinase K [2] = biological target: T1, proteinase K; test: Detection of β-actin RNA in HeLa cell lysates after stop solution (in vitro validation); format: biochemical; conditions: FIG. 6; ~10,000 HeLa cells lysed, β-actin RT-PCR
Protocol: HeLa cells (˜10,000 cells) were lysed in 50 μl lysis solution for 5 minutes at room temperature. Stop solution (5 μl) was then added; the lysate-stop solution was mixed, and incubated for 2 minutes at room temperature. A volume of 10 μl of stopped lysate was added to a 50 μl RT reaction followed by addition of 4 μl of RT reaction into a 20 μl PCR reaction using the β-actin primers/probe of the TaqMan® Gene Expression Cells-to-CT™ Kit (Applied Biosystems).

proteinase K [3] = biological target: T1, proteinase K; conditions: 100 μg/ml proteinase K; cited from earlier work

T1 sequence (P06873 106-384): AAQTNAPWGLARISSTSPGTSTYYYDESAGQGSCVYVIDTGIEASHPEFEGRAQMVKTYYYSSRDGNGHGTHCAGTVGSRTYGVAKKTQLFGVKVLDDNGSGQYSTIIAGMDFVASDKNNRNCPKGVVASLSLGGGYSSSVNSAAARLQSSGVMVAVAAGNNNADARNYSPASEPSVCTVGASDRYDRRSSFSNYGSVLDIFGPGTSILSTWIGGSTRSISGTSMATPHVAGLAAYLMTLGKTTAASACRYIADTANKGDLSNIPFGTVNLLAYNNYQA

Substance: methoxysuccinyl-AlaAlaProVal-chloromethyl ketone (MeOSuc-AAPV-CH2Cl) [reference compound]
- lowest concentration in the stopped mixture with inhibitory activity for proteinase K (proteinase K [1]; Example 2, FIG. 1, tested 1 mM to 0.05 mM in stopped mixture): about 0.25 mM
- lowest concentration in the stopped mixture inhibitory for proteinase K activity (proteinase K [1]; Example 6, FIG. 5, tested 1 mM to 0.05 mM): about 0.25 mM
- concentration at which inhibitor begins to lose efficacy (proteinase K [1]; FIG. 1): greater than 0.25 mM
- average Ct (cycle threshold) (proteinase K [1]; FIG. 1, 0.1 mM inhibitor): 40
- average Ct (cycle threshold) (proteinase K [1]; FIG. 1, 0.25 mM inhibitor): about 33
- average Ct (cycle threshold) (proteinase K [1]; FIG. 1, 0.5 mM inhibitor, Ct ~40 = active proteinase K, ~30 = inhibited): about 30
- average Ct (cycle threshold) (proteinase K [1]; FIG. 5, 0.1 mM inhibitor): about 40
- average Ct (cycle threshold) (proteinase K [1]; FIG. 5, 0.25 mM inhibitor): about 29
- concentration providing effective inhibition of proteinase K (proteinase K [2]): 0.5 mM
- lowest concentration with inhibitory activity for proteinase K (proteinase K [3]): 0.25 mM
